# B1: CIITA e.2 crystal duplex (dsDNA)
# DNA 1: CACAAGTGAGGGATCA
# DNA 2: GTGATCCCTCACTTGT
# Target: T1, ZBTB48 ZnF10-11-C (Homo sapiens, UniProt P10074 548-620)
# T1 sequence: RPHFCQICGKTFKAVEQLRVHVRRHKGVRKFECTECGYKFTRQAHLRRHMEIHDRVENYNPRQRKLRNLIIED
# Assay: crystal structure
binder,measurement,value
B1,binding result,binds
